Experimental data taken from patent US12202907B2, “Nucleic acids encoding and methods of producing proteins comprising antibody chains” (Innate Pharma, priority 2018, dated 2025).

How the values were obtained:
[1] = target: T1, human CD39 expressing CHO cells (CHO-huCD39) (Homo sapiens, UniProt P49961); assay: Inhibition of the enzymatic activity of cellular CD39 in CHO-huCD39; format: cell-based; conditions: qualitative
T1 construct: expressed in transfected cells; host or cells: CHO
T1 sequence (P49961 1-510): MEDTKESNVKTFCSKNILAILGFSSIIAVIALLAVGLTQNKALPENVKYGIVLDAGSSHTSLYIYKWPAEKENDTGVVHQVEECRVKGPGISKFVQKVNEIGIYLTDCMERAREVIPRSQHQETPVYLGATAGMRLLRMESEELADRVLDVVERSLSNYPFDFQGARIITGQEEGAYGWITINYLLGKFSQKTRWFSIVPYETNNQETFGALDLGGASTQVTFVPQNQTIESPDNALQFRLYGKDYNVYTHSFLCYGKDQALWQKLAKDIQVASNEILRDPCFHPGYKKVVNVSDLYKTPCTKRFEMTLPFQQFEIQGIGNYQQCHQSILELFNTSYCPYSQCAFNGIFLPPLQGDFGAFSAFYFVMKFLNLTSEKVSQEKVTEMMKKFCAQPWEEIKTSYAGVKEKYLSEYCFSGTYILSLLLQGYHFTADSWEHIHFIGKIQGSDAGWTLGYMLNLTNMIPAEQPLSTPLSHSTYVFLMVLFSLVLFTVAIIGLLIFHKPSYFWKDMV
Description: The inhibition of the CD39 enzymatic activity in CD39-expressing cells by antibodies was evaluated using Cell Titer GIo™ (Promega, reference G7571) that allows assessment of ATP hydrolysis through use of a reagent that generates a luminescent signal proportional to the amount of ATP present. The assay was thus designed to permit assessment of the inhibition of ATP hydrolyzed by CD39 in the cell culture supernatant. Briefly, 5×10^4 Ramos human lymphoma cells, 5×10^3 human CD39−, cynomolgus CD39—and mouse CD39− expressing CHO cells, were incubated 1 hour at 37° C. with anti-CD39 antibodies from 30 μg/ml to 5×10^−4 μg/ml. Cells were then incubated with 20 μM ATP for 1 additional hour at 37° C. Plates were centrifuged for 2 min at 400 g and 50 μl cell supernatant are transferred in a luminescence microplate (white wells). 50 μl CellTiter-Glo™ Reagent (CTG) was added to the supernatant and emitted light was quantified after a 5 min incubation in the dark using a Enspire™ luminometer. Anti-CD39 antibody efficacy was determined by comparing emitted light in presence of antibody with ATP alone (maximal light emission) and ATP together with cells (minimal light emission).

[2] = test system: monocyte-derived DC (moDC); assay: Activation of dendritic cells in the presence of ATP; format: cell-based, human; conditions: ATP 0.125 mM, 0.25 mM or 0.5 mM; I-394 at 10 μg/ml
Description: Briefly, human monocytes were purified from human healthy blood and differentiated into MoDC in presence of GM-CSF and IL-4 during 6 days. […] In some cases, MoDC were preincubated for 1 hour in presence of CD39 inhibitor: […] (Tocris, 250 μM), CD73 inhibitor: APCP (Tocris 50 μM), anti-CD39 blocking antibody I-394 or BY40 (for BY40 see WO2009/095478), or anti-CD73 blocking antibodies. LPS (Invivogen, 10 ng/ml) was used as positive control. To assess resulting effect of ATP-mediated DC activation on CD4 T cells activation, ATP-activated DC were washed and then incubated with allogenic CD4 T cells (ratio 1 MoDC/4 T cells) for a mixed lymphocytes reaction (MLR) during 5 days. T cells activation and proliferation were analyzed through CD25 expression and Cell Trace Violet dilution by flow cytometry (FIG. 8).

[3] = target: T2, CHO cells expressing human CD39 (Homo sapiens, UniProt P49961); assay: Antibody titration on CHO-huCD39 by flow cytometry; format: binding; conditions: qualitative
T2 construct: expressed in transfected cells; host or cells: CHO
T2 sequence (P49961 1-510): T1 sequence (P49961 1-510)
Description: Antibody I-394 was tested in two repeated experiments for binding to CHO cells expressing human CD39, CHO cells expressing cynomolgus (Macaca fascicularis) CD39, CHO cells expressing murine CD39, and human Ramos lymphoma cells (ATCC™, reference CRL-1596). Cells were incubated with various concentration of unlabeled anti-CD39 antibody from 30 μg/ml to 5×10^−4 μg/ml, for 30 minutes at 4° C. After washes, cells were incubated with Goat anti-mouse H+L labeled secondary antibody for 30 min at 4° C.

[4] = target: T3, Human CD39-L4 (NTPDase5, ENTPD5) (Homo sapiens, UniProt O75356); assay: ELISA titration on CD39-L4; format: binding
T3 sequence (O75356 25-428): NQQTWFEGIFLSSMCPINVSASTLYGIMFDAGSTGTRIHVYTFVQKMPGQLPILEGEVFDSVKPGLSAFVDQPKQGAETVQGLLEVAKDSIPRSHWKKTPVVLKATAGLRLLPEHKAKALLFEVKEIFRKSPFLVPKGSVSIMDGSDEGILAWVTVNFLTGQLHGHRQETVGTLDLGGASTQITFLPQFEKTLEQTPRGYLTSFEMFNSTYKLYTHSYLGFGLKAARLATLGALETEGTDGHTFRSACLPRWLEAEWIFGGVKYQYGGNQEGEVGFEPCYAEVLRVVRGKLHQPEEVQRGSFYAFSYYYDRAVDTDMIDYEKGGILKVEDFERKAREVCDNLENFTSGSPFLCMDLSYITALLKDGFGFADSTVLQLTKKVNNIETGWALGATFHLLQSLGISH
Description: Antibody I-394 was tested for binding to recombinant human CD39 isoforms (Rec-huCD39 isoforms) having amino acid sequences shown below were coated in 96-well plate in PBS 1X at 500 ng/ml or 1 μg/ml at 4° C. overnight. Wells were washed in TBS Tween® 20 (polysorbate 20), and further saturated 2H at RT in TBS Blocking buffer. Dose range concentration of primary antibody was incubated in TBS blocking buffer for 2 h at RT. Wells were washed in TBS Tween® 20 (polysorbate 20). […] Optical density was measured on Enspire™ at OD=450.

binding to cells expressing human CD39 (CHO-huCD39) [3]: bound
Substance: I-394: anti-CD39 antibody, VH SEQ ID NO: 6, VL SEQ ID NO: 7, human IgG1 Fc with L234A/L235E/G237A/A330S/P331S
blocking CD39 enzymatic activity in CHO-huCD39 [1]: blocks CD39 enzymatic activity | ATP-induced moDC activation (HLA-DR or CD83 expression) [2]: permitted moDC activation | binding to CD39-L4 in ELISA [4]: not to any of the isoforms CD39-L1, -L2, -L3 or -L4
